Data: PMC3303121 (Nature, 2012)

Target: A2A adenosine receptor A2AAR N154Q (residues 1-316) (Homo sapiens, UniProt P29274, N154Q)
Assay: SPR

Chain of A2A adenosine receptor A2AAR N154Q (residues 1-316) (P29274 1-316 N154Q): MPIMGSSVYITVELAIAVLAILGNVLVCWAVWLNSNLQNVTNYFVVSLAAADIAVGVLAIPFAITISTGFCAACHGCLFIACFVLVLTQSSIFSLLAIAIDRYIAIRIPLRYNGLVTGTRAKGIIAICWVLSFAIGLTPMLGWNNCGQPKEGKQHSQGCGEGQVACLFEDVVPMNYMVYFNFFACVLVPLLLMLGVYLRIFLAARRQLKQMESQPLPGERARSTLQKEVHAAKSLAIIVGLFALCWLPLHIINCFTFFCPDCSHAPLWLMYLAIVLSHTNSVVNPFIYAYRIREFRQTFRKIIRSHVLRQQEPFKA

B1: Fab2838, Fab fragment of mouse monoclonal antibody IgG2838 (Fab, V domains shown)
VH: EVQLQQSGAELVKPGSSVKISCKTSGDSFTAYNMNWVKQSHGKSLEWIGNINPYYGSTRYNQKFKGKATLTVDKSSSTAYIQLNSLTSEDSAVYYCAREGNYYDGGSVRYFDYWGQGTTLTVSS
VL: DIVMTQSPASLSASVGDTVTITCRASEFIYSSLTWYQQKQGGSPQLLVYAATNLADAVPSRFSGSGSGTQFSLKINRLQPEDFGTYYCQHFYGSTWAFGGGTKLEIK
- Kd: 4.4 nM
